Data reported in the RNAGym collection of RNA variant scans (doi:10.1093/molbev/msab373).

B1: Azoarcus group I ribozyme (parent)
chain: GUGCCUUGCGCCGGGAAACCACGCAAGGGAUGGUGUCAAAUUCGGCGAAACCUAAGCGCCCGCCCGGGCGUAUGGCAACGCCGAGCCAAGCUUCGGCGCCUGCGCCGAUGAAGGUGUAGAGACUAGACGGCACCCACCUAAGGCAAACGCUAUGGUGAAGGCAUAGUCCAGGGAGUGGCGAAAGUCACACAAACCGG

Variants of: B1
Test: reverse-splicing fitness (ratio to wild type); higher = more active; in vitro selection; Mg2+ level not given
Procedure, shortened: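 An in vitro group I ribozyme library with randomized positions was T7-transcribed and gel-purified. In triplicate, 10 pmol RNA in EPPS pH 7.5 was reacted with 50 pmoles of a 30-nt RNA substrate for 1 h at 37 °C across several added MgCl2 levels (1–48 mM), then stopped with EDTA. Products were reverse transcribed from a substrate-complementary primer, PCR-amplified and sequenced (HiSeq 4000). Fitness is a variant's read proportion after selection over that before, normalised to wild type.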

Row | Variant | reverse-splicing fitness
1 | C82U A120C A145G C150A | 0.0315
2 | C82U A120C A145G C150A C169A | 0.00919
3 | C82U A120C A145G C150A C169A U176A | 0.0175
4 | C82U A120C A145G C150A C169A U176C | 0.0203
5 | C82U A120C A145G C150A C169A U176G | 0.00547
6 | C82U A120C A145G C150A C169G | 0.00829
7 | C82U A120C A145G C150A C169G U176A | 0.0157
8 | C82U A120C A145G C150A C169G U176C | 0.0219
9 | C82U A120C A145G C150A C169G U176G | 0.00377
10 | C82U A120C A145G C150A C169U | 0.0116
11 | C82U A120C A145G C150A C169U U176A | 0.0136
12 | C82U A120C A145G C150A C169U U176C | 0.0166
13 | C82U A120C A145G C150A C169U U176G | 0.0043
14 | C82U A120C A145G C150A U176A | 0.0152
15 | C82U A120C A145G C150A U176C | 0.0295
16 | C82U A120C A145G C150A U176G | 0.00716
17 | C82U A120C A145G C150G | 0.0255
18 | C82U A120C A145G C150G C169A | 0.00952
19 | C82U A120C A145G C150G C169A U176A | 0.0124
20 | C82U A120C A145G C150G C169A U176C | 0.0131
21 | C82U A120C A145G C150G C169A U176G | 0.00772

Row | Variant | reverse-splicing fitness
22 | C82U A120C A145G C150G C169G | 0.00749
23 | C82U A120C A145G C150G C169G U176A | 0.00987
24 | C82U A120C A145G C150G C169G U176C | 0.0118
25 | C82U A120C A145G C150G C169G U176G | 0.00504
26 | C82U A120C A145G C150G C169U | 0.0108
27 | C82U A120C A145G C150G C169U U176A | 0.0113
28 | C82U A120C A145G C150G C169U U176C | 0.0111
29 | C82U A120C A145G C150G C169U U176G | 0.00619
30 | C82U A120C A145G C150G U176A | 0.00924
31 | C82U A120C A145G C150G U176C | 0.0157
32 | C82U A120C A145G C150G U176G | 0.00605
33 | C82U A120C A145G C150U | 0.139
34 | C82U A120C A145G C150U C169A | 0.0101
35 | C82U A120C A145G C150U C169A U176A | 0.0152
36 | C82U A120C A145G C150U C169A U176C | 0.0131
37 | C82U A120C A145G C150U C169A U176G | 0.00464
38 | C82U A120C A145G C150U C169G | 0.00809
39 | C82U A120C A145G C150U C169G U176A | 0.0128
40 | C82U A120C A145G C150U C169G U176C | 0.0155
41 | C82U A120C A145G C150U C169G U176G | 0.00466
42 | C82U A120C A145G C150U C169U | 0.0209

Row | Variant | reverse-splicing fitness
43 | C82U A120C A145G C150U C169U U176A | 0.0165
44 | C82U A120C A145G C150U C169U U176C | 0.0169
45 | C82U A120C A145G C150U C169U U176G | 0.00416
46 | C82U A120C A145G C150U U176A | 0.0355
47 | C82U A120C A145G C150U U176C | 0.0637
48 | C82U A120C A145G C150U U176G | 0.00907
49 | C82U A120C A145G C169A | 0.00815
50 | C82U A120C A145G C169A U176A | 0.0158
51 | C82U A120C A145G C169A U176C | 0.0219
52 | C82U A120C A145G C169A U176G | 0.00317
53 | C82U A120C A145G C169G | 0.00711
54 | C82U A120C A145G C169G U176A | 0.0152
55 | C82U A120C A145G C169G U176C | 0.0181
56 | C82U A120C A145G C169G U176G | 0.00346
57 | C82U A120C A145G C169U | 0.0217
58 | C82U A120C A145G C169U U176A | 0.0177
59 | C82U A120C A145G C169U U176C | 0.0171
60 | C82U A120C A145G C169U U176G | 0.00344
61 | C82U A120C A145G U176A | 0.0488
62 | C82U A120C A145G U176C | 0.0715
63 | C82U A120C A145G U176G | 0.00954

Row | Variant | reverse-splicing fitness
64 | C82U A120C A145U | 0.155
65 | C82U A120C A145U C150A | 0.021
66 | C82U A120C A145U C150A C169A | 0.00683
67 | C82U A120C A145U C150A C169A U176A | 0.0094
68 | C82U A120C A145U C150A C169A U176C | 0.00669
69 | C82U A120C A145U C150A C169A U176G | 0.00386
70 | C82U A120C A145U C150A C169G | 0.00588
71 | C82U A120C A145U C150A C169G U176A | 0.00898
72 | C82U A120C A145U C150A C169G U176C | 0.0081
73 | C82U A120C A145U C150A C169G U176G | 0.00397
74 | C82U A120C A145U C150A C169U | 0.00769
75 | C82U A120C A145U C150A C169U U176A | 0.0155
76 | C82U A120C A145U C150A C169U U176C | 0.0164
77 | C82U A120C A145U C150A C169U U176G | 0.00413
78 | C82U A120C A145U C150A U176A | 0.0114
79 | C82U A120C A145U C150A U176C | 0.0137
80 | C82U A120C A145U C150A U176G | 0.00478
81 | C82U A120C A145U C150G | 0.0217
82 | C82U A120C A145U C150G C169A | 0.00827
83 | C82U A120C A145U C150G C169A U176A | 0.00958
